In series [1] the target is Na+/K+-ATPase (α1β1 isozyme) from duck salt glands (duck). In words: ITC; peptide (100-200 μM, syringe) injected into Na+/K+-ATPase (10-20 μM, cell); 25°C; 10 mM imidazole pH 7.5, 130 mM NaCl, 30 mM KCl, 3 mM MgCl2; fit with one set of binding sites. (In general: Isothermal titration calorimetry measures the heat released or taken up as one component is titrated into another.)

For series [2] the following is noted: cited from earlier work. An excerpt: Recently, it has been shown that Aβ undergoes phosphorylation at Ser8 both in vitro and in vivo ([Kumar et al., 2011], [2013]). […] Recently, pS8-Aβ was obtained in vitro by Aβ phosphorylation with protein kinase A and was subsequently identified in vivo ([Kumar et al., 2011], [2013]). Based on the oligomeric state of pS8-Aβ derived from brain tissue of A ...

The target of series [3] is Na^+/K^+-ATPase (α1β1 isozyme) (Anas platyrhynchos, UniProt Q6TG02+Q7ZYV1). In words: Isothermal titration calorimetry of binding to Na+/K+-ATPase. The following applies: ITC, 25°C. Also on record: species or system duck (salt glands). As to the method:
The purified preparation of Na^+/K^+-ATPase (α1β1 isozyme) was obtained from duck salt glands as described elsewhere ([Petrushanko et al., 2016]).
The thermodynamic parameters of amyloid peptides binding to Na^+/K^+-ATPase were measured using a MicroCal iTC200 instrument, as described elsewhere ([Mitkevich et al., 2012]; [Petrushanko et al., 2014]). Experiments were carried out at 25°C in 10 mM imidazole buffer (pH 7.5), containing 130 mM NaCl, 30 mM KCl, 3 mM MgCl2. Aliquots (2.6 μl) of ligands were injected into a 0.2-ml cell containing protein solution to achieve a complete binding isotherm. Protein concentration in the cell ranged from 10 to 20 μM, and ligand concentration in the syringe ranged from 100 to 200 μM. The resulting titration curves were fitted using the MicroCal Origin software, assuming one set of binding sites. Affinity constants (Ka), enthalpy variations (ΔH) and stoichiometry of binding (N) were determined and the Gibbs energy (ΔG) and entropy variations (ΔS) were calculated from the equation: ΔG = −RTlnKa = ΔH-TΔS.

The mark [4] stands for this setting: 10 mM imidazole buffer (pH 7.5), 130 mM NaCl, 30 mM KCl, 3 mM MgCl2.
The mark [5] stands for this setting: pH 7.5, calculated from ΔG = −RTlnKa = ΔH-TΔS.

Where no end group is shown, it is not given here.

Take “β-amyloid peptide 17–42 (Aβ17-42), C-terminal hydrophobic fragment”: in series [1], the Ka came to 260000 M⁻¹; the Kd (usually the free concentration of one partner at which half of the binding sites on the other are occupied at equilibrium, for simple one-to-one binding) was 3.8 µM; the dH is -2.27 kcal/mol.

Consider “pS8-Aβ: phosphorylated Ser8-containing β-amyloid peptide (length not stated, literature)”, for which, in series [2] (in vitro, absence of zinc ions, ref Rezaei-Ghaleh et al., 2016, Jamasbi et al., 2017), the “aggregation in absence of zinc ions” value was “fast-aggregating peptide species”.

Turning to LVFFAEDVGSNKGAIIGLMVGGVVIA [Aβ17–42], in series [3] (setting [4]), the “detectability of binding to Na+,K+-ATPase” value is reported as “Binding was detectable” and the ΔH is -2.27 kcal/mol. In series [3] (10 mM imidazole buffer (pH 7.5), 130 mM NaCl, 30 mM KCl, 3 mM MgCl2, one set of binding sites), the Ka came out at 260000 M⁻¹. Further, in series [3] (setting [5]), the TΔS is recorded as 5.13 kcal/mol and the ΔG was -7.4 kcal/mol.

As for “pS8-Aβ40: Aβ40 phosphorylated at Ser8 (literature)”, in series [2] (absence of divalent cations, ref Kumar et al. (2011)), the aggregation in vitro entry is recorded as “accelerated aggregation”.

These data come from publication PMC6123382, “Phosphorylation of the Amyloid-Beta Peptide Inhibits Zinc-Dependent Aggregation, Prevents Na,K-ATPase Inhibition, and Reduces Cerebral Plaque Deposition” (Frontiers in Molecular Neuroscience, 2018).
